Data from patent US11891427B2, “Amidated peptides and their deamidated counterparts displayed by non-HLA-a*02 for use in immunotherapy against different types of cancers” (Immatics Biotechnologies GmbH, priority 2020, dated 2024).

Molecular target: HLA-A*01:01 (Homo sapiens, UniProt P04439, A114D/A174V/A182V/D101N/D185E/E176A/E190D/L180R/Q94H/R68K/S129P/T187R/V100A/V91M/W191G)
Test: MHC binding assay (UV-ligand exchange, beta2m ELISA)
Settings: binding to HLA-A*01:01, ranged by peptide exchange yield
Text: (§1) Candidate peptides for T cell based therapies according to the present invention were further tested for their MHC binding capacity (affinity). The individual peptide-MHC complexes were produced by UV-ligand exchange, where a UV-sensitive peptide is cleaved upon UV-irradiation and exchanged with the peptide of interest as analyzed. Only peptide candidates that can effectively bind and stabilize the peptide-receptive MHC molecules prevent dissociation of the MHC complexes. To determine the yield of the exchange reaction, an ELISA was performed based on the detection of the light chain (β2m) of stabilized MHC complexes. The assay was performed as generally described in Rodenko et al. (Rodenko et al., 2006).
(§2) 96 well MAXISorp plates (NUNC) were coated over night with 2 μg/ml streptavidin in PBS at room temperature, washed 4× and blocked for 1 h at 37° C. in 2% BSA containing blocking buffer. Refolded HLA-A*02:01/MLA-001 monomers served as standards, covering the range of 15-500 ng/ml. Peptide-MHC monomers of the UV-exchange reaction were diluted 100-fold in blocking buffer. Samples were incubated for 1 h at 37° C., washed four times, incubated with 2 μg/ml HRP conjugated anti-β2m for 1 h at 37° C., washed again and detected with TMB solution that is stopped with […]. Absorption was measured at 450 nm. Candidate peptides that show a high exchange yield (preferably higher than 50%, most preferred higher than 75%) are generally preferred for a generation and production of antibodies or fragments thereof, and/or T cell receptors or fragments thereof, as they show sufficient avidity to the MHC molecules and prevent dissociation of the MHC complexes.

| Peptide exchange | Substance |
| --- | --- |
| +++ (≥50% = +++) | 60 (HVKDATMGY) [compound 60] |
| +++ (≥50% = +++) | 58 (GTDQTGKGLEY) [compound 58] |
| ++++ (≥75% = ++++) | 83 (TFVDASRTLY) [compound 83] |
| ++++ (≥75% = ++++) | 6 (ISDITEKNSGLY) [compound 6] |
| ++++ (≥75% = ++++) | 90 (HVDNSNLNY) [compound 90] |
| ++++ (≥75% = ++++) | 82 (VTDVTEEHY) [compound 82] |
| ++++ (≥75% = ++++) | 84 (EVEGVIDGTYDY) [compound 84] |
| ++ (≥20% = ++) | 4 (YIDDVTLI) [compound 4] |
| ++ (≥20% = ++) | 92 (GQYDDSLQAY) [compound 92] |
| ++ (≥20% = ++) | 34 (LSDLSLADI) [compound 34] |
| +++ (≥50% = +++) | 37 (RSLDCTVKTY) [compound 37] |
| ++++ (≥75% = ++++) | 33 (ISDGMDSSAHY) [compound 33] |
| ++ (≥20% = ++) | 93 (HADLTTLTF) [compound 93] |
| ++ (≥20% = ++) | 7 (VTRDDTASY) [compound 7] |
| ++++ (≥75% = ++++) | 79 (FTDTSSYEY) [compound 79] |
| ++++ (≥75% = ++++) | 52 (LTEVEKDATALY) [compound 52] |
| ++++ (≥75% = ++++) | 18 (GTDKQDSTLRY) [compound 18] |
| ++ (≥20% = ++) | 50 (RSIDVTGQGF) [compound 50] |
| ++++ (≥75% = ++++) | 16 (VTQDDTGFY) [compound 16] |

| Peptide exchange | Substance |
| --- | --- |
| ++ (≥20% = ++) | 11 (NHITDTSLNLF) [compound 11] |
| ++ (≥20% = ++) | 51 (RVDDITDQF) [compound 51] |
| ++++ (≥75% = ++++) | 91 (GVDDTSLLY) [compound 91] |
| +++ (≥50% = +++) | 59 (ILFSDSTRLSF) [compound 59] |
| ++++ (≥75% = ++++) | 25 (FTDLITDESINY) [compound 25] |
| ++ (≥20% = ++) | 89 (HVSDVTVNY) [compound 89] |
| ++ (≥20% = ++) | 13 (TANYDTSHY) [compound 13] |
| ++ (≥20% = ++) | 10 (QVDGSLLVI) [compound 10] |
| ++++ (≥75% = ++++) | 87 (ITDDTVQTY) [compound 87] |
| ++++ (≥75% = ++++) | 12 (ITDTSLNLF) [compound 12] |
| ++ (≥20% = ++) | 85 (EVQDHSTSSY) [compound 85] |
| ++++ (≥75% = ++++) | 81 (VTETMGIDGSAY) [compound 81] |
| ++ (≥20% = ++) | 86 (ILPDITTTY) [compound 86] |
| +++ (≥50% = +++) | 94 (YSIDVTNVM) [compound 94] |
| +++ (≥50% = +++) | 80 (LTNDQTLRL) [compound 80] |
| +++ (≥50% = +++) | 20 (TSDTSQYDTY) [compound 20] |
| ++++ (≥75% = ++++) | 88 (WLDRSTILY) [compound 88] |
| ++++ (≥75% = ++++) | 49 (PSDGSMHNY) [compound 49] |

| Substance | Peptide exchange |
| --- | --- |
| 19 (MTDVDRDGTTAY) [compound 19] | ++++ (≥75% = ++++) |

Molecular target: HLA-A*03:01 (Homo sapiens, UniProt P04439)
Test: as above
Settings: binding to HLA-A*03:01 ranged by peptide exchange yield
Text: as §1, §2

| Peptide exchange | Substance |
| --- | --- |
| +++ (≥50% = +++) | 3 (IVRDLSCRK) [compound 3] |

Molecular target: HLA-A*24:02 (Homo sapiens, UniProt P04439, D101N/D140Y/D185E/E176V/E190D/F33S/G103R/G107R/I119L/I121M/I306V/K335N/L105A/L180Q/L300P/N151K/N90K/Q86E/Q94H/R106L/R138H/R89G/T104I/T345S/V100E/W191G/Y123F)
Test: as above
Settings: binding to HLA-A*24:02, ranged by peptide exchange yield
Text: as §1, §2

| Peptide exchange | Substance |
| --- | --- |
| ++ (≥20% = ++) | 9 (IFDETGRF) [compound 9] |
| ++++ (≥75% = ++++) | 57 (FYDLSIQSF) [compound 57] |
| ++ (≥20% = ++) | 24 (FYDNSVIIF) [compound 24] |
| ++++ (≥75% = ++++) | 100 (EYQDFSTLF) [compound 100] |
| ++++ (≥75% = ++++) | 43 (FFTDKTLSF) [compound 43] |
| ++ (≥20% = ++) | 1 (VHDFTLPSW) [compound 1] |
| ++ (≥20% = ++) | 65 (IYQFARLDY) [compound 65] |
| ++++ (≥75% = ++++) | 76 (TYLPTDASLSF) [compound 76] |
| ++++ (≥75% = ++++) | 97 (RYVNDYTNSF) [compound 97] |
| +++ (≥50% = +++) | 54 (QYQDTTVSF) [compound 54] |
| ++ (≥20% = ++) | 38 (KLTDNSNQF) [compound 38] |
| +++ (≥50% = +++) | 45 (YFVDVTTRI) [compound 45] |
| ++++ (≥75% = ++++) | 26 (IYPDASLLIQNI) [compound 26] |
| ++++ (≥75% = ++++) | 99 (VYVDTTELAL) [compound 99] |
| ++++ (≥75% = ++++) | 102 (IYPDGTLLI) [compound 102] |
| ++ (≥20% = ++) | 67 (QAIDLSLNF) [compound 67] |

| Peptide exchange | Substance |
| --- | --- |
| ++++ (≥75% = ++++) | 101 (VYLDASKVPGF) [compound 101] |
| ++++ (≥75% = ++++) | 55 (VYTDISHHF) [compound 55] |
| ++++ (≥75% = ++++) | 95 (VYIDDSVEL) [compound 95] |
| ++ (≥20% = ++) | 68 (VFDETKNLL) [compound 68] |
| +++ (≥50% = +++) | 36 (YWDETLKEF) [compound 36] |
| + (≥10% = +) | 23 (SYDETKIKF) [compound 23] |
| + (≥10% = +) | 66 (YHDQTISF) [compound 66] |
| ++ (≥20% = ++) | 98 (AFDKTIVKL) [compound 98] |
| ++ (≥20% = ++) | 103 (RQDESYLNF) [compound 103] |
| ++ (≥20% = ++) | 96 (IFVPTDRSL) [compound 96] |
| +++ (≥50% = +++) | 5 (GYIDDVTLI) [compound 5] |
| ++++ (≥75% = ++++) | 69 (KSYHDQTISF) [compound 69] |
| ++++ (≥75% = ++++) | 2 (FFQDSTFSF) [compound 2] |
| + (≥10% = +) | 64 (FHYDDTAGYF) [compound 64] |
| ++ (≥20% = ++) | 104 (HLFYDVTVF) [compound 104] |

Molecular target: HLA-B*07:02 (Homo sapiens, UniProt P01889)
Test: as above
Settings: binding to HLA-B*07:02 ranged by peptide exchange yield
Text: as §1, §2

| Peptide exchange | Substance |
| --- | --- |
| ++++ (≥75% = ++++) | 70 (HPFGYDLTL) [compound 70] |
| +++ (≥50% = +++) | 21 (APFKDVTEY) [compound 21] |
| ++++ (≥75% = ++++) | 62 (HPDLTSMTF) [compound 62] |
| +++ (≥50% = +++) | 106 (SPKIFDSSW) [compound 106] |
| ++++ (≥75% = ++++) | 105 (NPADISVAL) [compound 105] |
| +++ (≥50% = +++) | 48 (FPYYLKIDY) [compound 48] |
| ++++ (≥75% = ++++) | 71 (VPRNQDESV) [compound 71] |
| ++++ (≥75% = ++++) | 39 (LPFFTDKTLSF) [compound 39] |
| +++ (≥50% = +++) | 107 (GEPTSDITLL) [compound 107] |

Molecular target: HLA-B*44:05 (Homo sapiens, UniProt P01889, A223V/A65T/A93T/A95T/D201E/D98Y/E176V/E187L/E204Q/E69K/G107R/H137Y/K202T/L105A/L119I/N104T/N87E/Q56L/Q94N/R106L/R155S/R180D/S101N/S121R/S35A/S48T/T118I/V36M/W191S/Y91S)
Test: as above
Settings: binding to HLA-B*44:05, ranged by peptide exchange yield
Text: as §1, §2

| Peptide exchange | Substance |
| --- | --- |
| ++++ (≥75% = ++++) | 75 (QEVDISLHY) [compound 75] |
| ++++ (≥75% = ++++) | 77 (KPREEQYDSTY) [compound 77] |
| ++++ (≥75% = ++++) | 113 (TDFTKIASF) [compound 113] |
| +++ (≥50% = +++) | 15 (TEGDFTKEASTY) [compound 15] |
| ++++ (≥75% = ++++) | 74 (LENMYDLTF) [compound 74] |
| ++++ (≥75% = ++++) | 44 (KENQDHSYSL) [compound 44] |
| +++ (≥50% = +++) | 110 (AESLAVHDI) [compound 110] |
| +++ (≥50% = +++) | 109 (DETAAYKIM) [compound 109] |
| ++++ (≥75% = ++++) | 112 (AEFFDYTVRTL) [compound 112] |
| ++++ (≥75% = ++++) | 78 (DETIWYVRF) [compound 78] |
| ++++ (≥75% = ++++) | 108 (DETHTLQF) [compound 108] |
| ++++ (≥75% = ++++) | 111 (GEYRCQTDL) [compound 111] |
| ++++ (≥75% = ++++) | 46 (KEVDDTLLVNEL) [compound 46] |
| ++++ (≥75% = ++++) | 73 (DESKYTWSW) [compound 73] |
